From doi:10.1101/2021.06.09.447721

Target: GST-NET-Ct^ΔMIM (human) (UniProt P23975)
Assay: pull-down

## MAD2 (endogenous) (from UniProt Q13257 1-205) (natural protein)
  reduction of MAD2 binding against wild type GST-NET-Ct: 70%
